The values that follow come from patent publication EP2415863A1, “Mutant glucose oxidase” (B.R.A.I.N., priority 2010, dated 2012).

Holding throughout (format): biochemical, Aspergillus niger
Substrate in series [1]: OC[C@H]1OC(O)[C@H](O)[C@@H](O)[C@@H]1O
In words: Kinetic constants by ABTS assay, wt GOx. The conditions noted are these: other: wt GOx, 2.5-100 mM glucose. The source says: (§1) For detection of GOx activity the ABTS assay was used. 2,2'-azino-bis(3-ethylbenzthiazoline-6-sulphonic acid (ABTS) is commonly used as a substrate with hydrogen peroxide for a peroxidase generating enzyme. Its use allows the reaction kinetics of peroxidases to be followed, to indirectly follow the reaction kinetics of a hydrogen peroxide-producing enzyme or to quantify the amount of hydrogen peroxide in a sample [vanGijlswijk, R.P.M., et al., Fluorochrome-labeled tyramides: Use in immunocytochemistry and fluorescence in situ hybridization. Journal of Histochemistry & Cytochemistry, 1997. 45(3): p. 375-382].
(§2) The kinetic constants were determined using the Specord 200 from (Analytik Jena, Germany) and the ABTS assay [Zhu, Z.W., et al. 2006, Making glucose oxidase fit for biofuel cell applications by directed protein evolution. Biosensors & Bioelectronics, 21(11): 2046-2051]. The measurements were performed in 1 ml of reaction volume and 1 cm light pathway cuvettes, using 2.5, 5, 10, 25, 50 and 100 mM glucose. The data were fitted using Origin 6 (OriginLab Corporation, Northampton).

Substrate in series [2]: OC[C@H]1OC(O)[C@H](O)[C@@H](O)[C@@H]1O
In words: Kinetic constants by ABTS assay, parent GOx B11. The conditions noted are these: other: Parent GOx (B11), 2.5-100 mM glucose.
Text: as §1, §2

Substrate in series [3]: OC[C@H]1OC(O)[C@H](O)[C@@H](O)[C@@H]1O
In words: Kinetic constants by ABTS assay, GOx mutant M12. The conditions noted are these: other: M12, 2.5-100 mM glucose.
Text: as §1, §2

B1: Aspergillus niger glucose oxidase (GOx), wild type, SEQ ID NO: 3 (Aspergillus niger) (protein)
chain: SNGIEASLLTDPKDVSGRTVDYIIAGGGLTGLTTAARLTENPNISVLVIESGSYESDRGPIIEDLNAYGDIFGSSVDHAYETVELATNNQTALIRSGNGLGGSTLVNGGTWTRPHKAQVDSWETVFGNEGWNWDNVAAYSLQAERARAPNAKQIAAGHYFNASCHGVNGTVHAGPRDTGDDYSPIVKALMSAVEDRGVPTKKDFGCGDPHGVSMFPNTLHEDQVRSDAAREWLLPNYQRPNLQVLTGQYVGKVLLSQNGTTPRAVGVEFGTHKGNTHNVYAKHEVLLAAGSAVSPTILEYSGIGMKSILEPLGIDTVVDLPVGLNLQDQTTATVRSRITSAGAGQGQAAWFATFNETFGDYSEKAHELLNTKLEQWAEEAVARGGFHNTTALLIQYENYRDWIVNHNVAYSELFLDTAGVASFDVWDLLPFTRGYVHILDKDPYLHHFAYDPQYFLNELDLLGQAAATQLARNISNSGAMQTYFAGETIPGDNLAYDADLSAWTEYIPYHFRPNYHGVGTCSMMPKEMGGVVDNAARVYGVQGLRVIDGSIPPTQMSSHVMTVFYAMALKISDAILEDYASMQ
notes: made in house; host or cells: Saccharomyces cerevisiae (pYES2 vector)
For the protein B1, in series [1], the Km is 22.0 mM mM.

B2: Aspergillus niger glucose oxidase (GOx) parent mutant B11, T30V, I94V, SEQ ID NO: 5 (Aspergillus niger; I116V/T52V) (protein)
chain: SNGIEASLLTDPKDVSGRTVDYIIAGGGLVGLTTAARLTENPNISVLVIESGSYESDRGPIIEDLNAYGDIFGSSVDHAYETVELATNNQTALVRSGNGLGGSTLVNGGTWTRPHKAQVDSWETVFGNEGWNWDNVAAYSLQAERARAPNAKQIAAGHYFNASCHGVNGTVHAGPRDTGDDYSPIVKALMSAVEDRGVPTKKDFGCGDPHGVSMFPNTLHEDQVRSDAAREWLLPNYQRPNLQVLTGQYVGKVLLSQNGTTPRAVGVEFGTHKGNTHNVYAKHEVLLAAGSAVSPTILEYSGIGMKSILEPLGIDTVVDLPVGLNLQDQTTATVRSRITSAGAGQGQAAWFATFNETFGDYSEKAHELLNTKLEQWAEEAVARGGFHNTTALLIQYENYRDWIVNHNVAYSELFLDTAGVASFDVWDLLPFTRGYVHILDKDPYLHHFAYDPQYFLNELDLLGQAAATQLARNISNSGAMQTYFAGETIPGDNLAYDADLSAWTEYIPYHFRPNYHGVGTCSMMPKEMGGVVDNAARVYGVQGLRVIDGSIPPTQMSSHVMTVFYAMALKISDAILEDYASMQ
notes: made in house; host or cells: Saccharomyces cerevisiae (pYES2 plasmid B11 GOx)
Regarding B2, in series [2], the Km is 16.0 mM mM and the kcat stood at 80.0 S-^1 S-^1.

B3: Aspergillus niger glucose oxidase (GOx) variant M12, N2Y, K13E, T30V, I94V, K152R, SEQ ID NO: 1 (Aspergillus niger; I116V/K174R/K35E/N24Y/T52V) (protein)
chain: SYGIEASLLTDPEDVSGRTVDYIIAGGGLVGLTTAARLTENPNISVLVIESGSYESDRGPIIEDLNAYGDIFGSSVDHAYETVELATNNQTALVRSGNGLGGSTLVNGGTWTRPHKAQVDSWETVFGNEGWNWDNVAAYSLQAERARAPNARQIAAGHYFNASCHGVNGTVHAGPRDTGDDYSPIVKALMSAVEDRGVPTKKDFGCGDPHGVSMFPNTLHEDQVRSDAAREWLLPNYQRPNLQVLTGQYVGKVLLSQNGTTPRAVGVEFGTHKGNTHNVYAKHEVLLAAGSAVSPTILEYSGIGMKSILEPLGIDTVVDLPVGLNLQDQTTATVRSRITSAGAGQGQAAWFATFNETFGDYSEKAHELLNTKLEQWAEEAVARGGFHNTTALLIQYENYRDWIVNHNVAYSELFLDTAGVASFDVWDLLPFTRGYVHILDKDPYLHHFAYDPQYFLNELDLLGQAAATQLARNISNSGAMQTYFAGETIPGDNLAYDADLSAWTEYIPYHFRPNYHGVGTCSMMPKEMGGVVDNAARVYGVQGLRVIDGSIPPTQMSSHVMTVFYAMALKISDAILEDYASMQ
notes: made in house; host or cells: Saccharomyces cerevisiae (pYES2)
Regarding B3, in series [3], the Km was found to be 18.1 mM mM and the kcat was found to be 150 s-1 s-1.
